# According to patent publication US20150284450A1 (AstraZeneca / MedImmune, published 2015):
# B1: anti-PcrV monoclonal antibody V2L2 (antibody, V domains shown)
# VH: EMQLLESGGGLVQPGGSLRLSCAASGFTFSSYAMNWVRQAPGEGLEWVSAITISGITAYYTDSVKGRFTISRDNSKNTLYLQMNSLRAGDTAVYYCAKEEFLPGTHYYYGMDVWGQGTTVTVSS
# VL: AIQMTQSPSSLSASVGDRVTITCRASQGIRNDLGWYQQKPGKAPKLVIYSASTLQSGVPSRFSGSGSGTDFTLSISSLQPDDFATYYCLQDYNYPWTFGQGTKVEIK
# Target: PcrV as expressed by live P. aeruginosa (strains 6077 and 6206) in the cytotoxicity and RBC lysis assays (Pseudomonas aeruginosa)
# Assay: cell-based or functional assay
binder,measurement,value
B1,"inhibition of cytotoxicity (A549 lysis by P. aeruginosa 6077, LDH release), IC50",0.1 µg/mL
same,"inhibition of cytotoxicity, IC50 relative to mAb166",28 fold lower
same,"prevention of RBC lysis (rabbit RBCs, P. aeruginosa 6077), IC50",0.37 µg/mL
same,"prevention of RBC lysis, IC50 relative to mAb166",10 fold lower
